Assay results reported in patent publication US20050037963.

Experiments:
[1] = tested on: HA-tagged full-length FIP200 (pKH3-FIP200, residues 1-1591)
[2] = tested on: GST alone [GST: P08515]
[3] = tested on: GST fusion protein containing CT-FIP (pGEX-CT-FIP)

Sequence of FAK immunoprecipitated from Chinese hamster ovary cells overexpressing FAK (Q05397 2-1052): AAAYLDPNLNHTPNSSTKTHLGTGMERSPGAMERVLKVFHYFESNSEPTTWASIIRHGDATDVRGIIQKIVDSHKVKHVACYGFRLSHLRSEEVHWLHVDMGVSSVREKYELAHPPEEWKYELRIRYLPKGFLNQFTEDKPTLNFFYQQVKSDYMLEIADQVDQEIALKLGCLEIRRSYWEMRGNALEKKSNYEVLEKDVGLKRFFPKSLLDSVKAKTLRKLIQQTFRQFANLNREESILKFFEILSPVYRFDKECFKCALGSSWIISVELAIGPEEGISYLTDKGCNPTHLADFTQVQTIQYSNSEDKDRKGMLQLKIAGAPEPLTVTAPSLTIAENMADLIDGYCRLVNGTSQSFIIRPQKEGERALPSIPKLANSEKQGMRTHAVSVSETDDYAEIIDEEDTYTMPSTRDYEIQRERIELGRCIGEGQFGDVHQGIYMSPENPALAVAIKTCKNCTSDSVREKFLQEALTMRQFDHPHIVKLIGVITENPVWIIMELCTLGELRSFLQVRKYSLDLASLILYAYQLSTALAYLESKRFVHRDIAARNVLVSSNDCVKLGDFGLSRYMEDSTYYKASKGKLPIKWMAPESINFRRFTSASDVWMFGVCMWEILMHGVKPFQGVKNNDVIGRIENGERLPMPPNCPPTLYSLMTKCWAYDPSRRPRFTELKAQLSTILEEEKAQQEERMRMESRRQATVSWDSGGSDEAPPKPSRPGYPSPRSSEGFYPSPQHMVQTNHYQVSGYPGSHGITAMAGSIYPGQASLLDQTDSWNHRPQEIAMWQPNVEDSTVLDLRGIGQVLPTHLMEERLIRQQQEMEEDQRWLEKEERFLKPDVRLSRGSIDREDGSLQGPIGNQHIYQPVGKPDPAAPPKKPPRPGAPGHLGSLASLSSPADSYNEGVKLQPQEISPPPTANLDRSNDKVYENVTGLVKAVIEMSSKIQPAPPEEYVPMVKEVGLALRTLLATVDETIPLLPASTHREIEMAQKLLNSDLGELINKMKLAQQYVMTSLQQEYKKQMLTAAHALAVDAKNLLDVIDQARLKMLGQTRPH
Sequence of FAK expressed from an expression vector encoding FAK (tag not stated) (Q05397 2-1052): as above

Substance | rescue of BrdU incorporation (NIH3T3) [1] | FAK kinase activity (in vitro kinase assay, E4Y1 as exogenous substrate) [2] | FAK kinase activity (in vitro kinase assay, E4Y1 as exogenous substrate) [3]
FAK expressed from an expression vector encoding FAK (tag not stated) | it rescued the inhibition of BrdU incorporation by FIP200 to the control levels |  | 
FAK immunoprecipitated from Chinese hamster ovary cells overexpressing FAK |  | GST alone did not have any effect | at lower concentrations (e.g., <5 pmol/reaction), GST fusion proteins containing NT-FIP or MD-FIP reduced FAK kinase activity, whereas CT-FIP did not
